Reference: patent publication US20210340276A1 (published 2021)

Biological target: human cancer-specific MUC1 (on breast cancer cell line T-47D cells) (human, UniProt P15941 24-1255, cancer-specific incomplete O-glycosylation (T, Tn, 2,3ST) of the tandem repeat, as described in the background)
Assay: Cell ELISA

| Binder | Kd |
| --- | --- |
| P10-1 Fab (Fab, V domains shown) VH: QVQLVQSGAEVKKPGASVKVSCKASGYTFTNYGLSWVRQAPGQGLEWMGENHPGSGIIYHNEKFRGRVTLTADRSTSTAYMELSSLRSEDTAVYYCARSSGTRGFAYWGQGTLVTVSS VL: DVVMTQTPLSLSVTPGQPASISCRSSQSIVHSNGNTYLEWYLQKPGQSPQLLIYRVSNRFSGVPDRFSGSGSGTDFTLKISRVEAEDVGVYYCFQGSHGPWTFGQGTKLEIKR | 0.35 nM |
| P10-2 Fab (Fab, V domains shown, heavy chain N-terminal glutamine modified into pyroglutamic acid in a great majority of purified antibodies (Example 2)) VH: QVQLVQSGAEVKKPGASVKVSCKASGYTFTNYGLSWVRQAPGQGLEWMGENHPGSGIIYHNEKFRGRVTLTADRSTSTAYMELSSLRSEDTAVYYCARSSGTRGFDYWGQGTLVTVSS VL: DVVMTQTPLSLSVTPGQPASISCRSSQSIVHSNGNTYLEWYLQKPGQSPQLLIYRVSNRFSGVPDRFSGSGSGTDFTLKISRVEAEDVGVYYCFQGSHGPWTFGQGTKLEIKR | 0.29 nM |
